Among the data in article doi:10.1101/2023.01.31.526478 are FRET efficiency values, retold here.

For this assay, the target named is SNAP-SPIN1 (human) (UniProt Q9Y657). Nature of the assay: FRET or BRET. A general note: Bioluminescence resonance energy transfer reports proximity on the nanometre scale.
Sequence of UniProt Q9Y657 (Q9Y657 whole entry): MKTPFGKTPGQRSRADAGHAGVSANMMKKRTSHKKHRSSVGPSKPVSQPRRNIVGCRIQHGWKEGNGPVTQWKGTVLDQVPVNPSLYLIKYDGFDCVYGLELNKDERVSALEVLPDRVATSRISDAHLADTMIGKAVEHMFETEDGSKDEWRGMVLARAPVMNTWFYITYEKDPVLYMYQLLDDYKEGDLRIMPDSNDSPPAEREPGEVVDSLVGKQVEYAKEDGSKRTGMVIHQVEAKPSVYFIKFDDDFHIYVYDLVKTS

For “Halo-WDR76 (from UniProt Q9H967 1-626) (natural protein)”, the FRET efficiency is 2%.
